Results on 41 sequences are retold here after the nanobody polyreactivity screen of Harvey et al. (2022).

A short description of this series: yeast display, Sf9 membrane polyspecificity reagent, FACS + sequencing; frameworks hold sequencing errors. An outline of the steps:
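Using colony PCR, genes from sorted yeast display clones were amplified, then sequenced on MiSeq at 2 × 250 and filtered by CDR length. The clones had been stained with 10% biotinylated, detergent-solubilized Sf9 membrane reagent for 1 hour at 4 °C and sorted by FACS into low and high (top ~1%) gates on anti-HA and streptavidin fluorescence. Polyreactivity labels come from the gate of origin.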
For the sequence “QVQLVESGGGLVQAGGSLRLSCAASGSTFSFYAMGVYRQAPGKERELVAAISKSGGRTYYADSVKGRFTISRDNAKYTVYLQMNSLKPEDTAVYYCAARGNGQYVGKYYYWGQGTQVTVSS”, the “polyreactivity (PSR sort gate)” value is given as “high polyreactivity”.
As to “QVQLVESGGGLVQAGGSLRLSCAASGSTFSFYAMGWYRQAPGKERELVAAISRSGGRTYYADSVKGRFTISRDNAKNTVYLQMNSLKPEDTAVYYCAVEVTHYIHYYYWGQGNQVTVSS”, the “polyreactivity (PSR sort gate)” value is reported as “high polyreactivity”.
For “QVQLVESGGGLVQAGGSLRLSCAASGSTFSFYAMGWYRQAPGKERELVAAISRSGGSTFYADSVKGRFTISRDNAKNTVYLQMNSLKPEDTAVYYCAAYGGLQSRYYYWGQGTQVTVSS”, the “polyreactivity (PSR sort gate)” value is listed as “high polyreactivity”.
Take “QVQLVESGGGLVQAGGSLRLSCAASGSTFSGNAMGWYRQAPGKERELVAAITSSGGSTYYADSVKGRFTISRDNAKNTVYLQMNSLKPEDTAVYYCAADGQYYYGFDYWGQGTQVTVSS”: the “polyreactivity (PSR sort gate)” value is reported as “high polyreactivity”.
Turning to “QVQLVESGGGLVQAGGSLRLSCAASGSTFSGNARGWDRQAPGKERELVAAISRRGGSTNYADSVKGRFTISRDNAKYTVYLKMNSLKPEDTAVYYCNKGDYRSAYRHIEYGYWGQGTQVTVSS”, the “polyreactivity (PSR sort gate)” value is “low polyreactivity”.
“QVQLVESGGGLVQAGGSLRLSCAASGSTFSGYAMGWYRLAPGKERELVASISSGGRTTYADSVKGRFTISRDNAKYTVYLQMNSLKPEDTAVSYCANRIRPGYARLYSWGQGTQVTVSS”: the “polyreactivity (PSR sort gate)” value was “high polyreactivity”.
Turning to “QVQLVESGGGLVQAGGSLRLSCAASGSTFSGYAMGWYRQAPGKERELVAAITLGGGSTYYADSVKGRFTISRDNAKNTVYLQMNSLKPEDTAVYYCAAGDIYYAEYDYWGQGTQVTVSS”, the “polyreactivity (PSR sort gate)” value is listed as “low polyreactivity”.
For “QVQLVESGGGLVQAGGSLRLSCAASGSTFSGYAMGWYRQAPGKERELVAAITSGGGTYYADSVKGRFTISRDNAKNTVYLQMNSLKPEDTAVYYCAADGIARAYVLLDAYDFLYDYWGQGTQVTVSS”, the “polyreactivity (PSR sort gate)” value was “low polyreactivity”.
With “QVQLVESGGGLVQAGGSLRLSCAASGSTFSGYTMGWYRQAPGKEREFVAAISVSGGSTYYADSVKGRFTISRDNAKNTVYLQMNSLKPEDTAVYYCNTVTSGFLSYDYWGQGTQVTVSS”, the “polyreactivity (PSR sort gate)” value is “high polyreactivity”.
With “QVQLVESGGGLVQAGGSLRLSCAASGSTFSGYVMGWYRQAPGKERELVAAISSSGGGSTYYADSVKGRFTISRDNAKNTVYLQMNSLKPEDTAVYYCAARNYRKYDYWGQGTQVTVSS”, the “polyreactivity (PSR sort gate)” value is reported as “high polyreactivity”.
Regarding “QVQLVESGGGLVQAGGSLRLSCAASGSTFSHNTMGWYRQAPGKERELVAAISSRGSSTYYADSVKGRFTISRDNAKNTVYLQMNSLKPEDTAVYYCAARYLRGTWAGLGYDYWGQGTQVTVSS”, the “polyreactivity (PSR sort gate)” value is “low polyreactivity”.
As to “QVQLVESGGGLVQAGGSLRLSCAASGSTFSHYAMGWYRQATGKERELVAAISKSGGITYYADSVKGRFTISRDNAKNTVYLQMNSLKPEDTAVYYCNARWSWRGTRYDYGYWGQGTQVTVSS”, the “polyreactivity (PSR sort gate)” value was “low polyreactivity”.
Then “QVQLVESGGGLVQAGGSLRLSCAASGSTFSIYAMGWYRQAPGKERELVAAISFSDASTYYADSVKGRFTISRDNAKNTVYLQMNSLKPEDTAVYYCAAVVGAFKRRFYYWGQGTQVTVSS”, with “high polyreactivity”.
Turning to “QVQLVESGGGLVQAGGSLRLSCAASGSTFSIYAMGWYRQAPGKERELVADITANGGSTYYADSVKGRFTISRDNAKNTVYLPMNSLKPEDTAVYYCAADAKSFDAVHYDYWGQGTHVTVSS”, the “polyreactivity (PSR sort gate)” value is given as “low polyreactivity”.
Under “QVQLVESGGGLVQAGGSLRLSCAASGSTFSIYARGWYRPAPGKERELVAAISYSDGTTYSADSVKGRFTISRDNAKNTDYVQMNSLKPEDTAVYYCATQQIWTSWYDRFDYWGQGTQVTVSS” stands “low polyreactivity”.
For “QVQLVESGGGLVQAGGSLRLSCAASGSTFSKNAMGWNRQAPGKERELFAAIRSRGGSTYYADSVKGRFTISRDNAKNTVYLQMNSLKPEDTAVYYCNKVRAYECDYWGQGTKVTVSS”, the “polyreactivity (PSR sort gate)” value was “high polyreactivity”.
Under “QVQLVESGGGLVQAGGSLRLSCAASGSTFSKYTMGWYRQAPGKERELVAAISVSVGRTYYADSVKGRFTISRDNAKNTVYLQMNSLKPEDTAVYYCAAAYSGLYYWGQGTQVTVSS” stands “high polyreactivity”; under “QVQLVESGGGLVQAGGSLRLSCAASGSTFSLNAIGWFRQAPGKERQLVAAITGRGTRTYYADSVKGRFTLSRDNAKNTVYLQMNSLKPEDTAVYYCAKDYPRGSPYGYNYWGQGTQVTVSS”, “high polyreactivity”; under “QVQLVESGGGLVQAGGSLRLSCAASGSTFSLYAMGWYRQAPGKERELVAAINSGTSTYYADSVKGRFTISRDNAKNTVYLQMNSLKPEDTAVYYCAADGYPLQLYNYWGQGTQVTVSS”, “low polyreactivity”.
For the sequence “QVQLVESGGGLVQAGGSLRLSCAASGSTFSLYAMGWYRQAPGKERELVARISYTDGSTYYADSVKGRFTISRDNAKNTVYLQMNSLKPEDTAVYYCAADAWYSYTLEDYWGQGTQVTVSS”, the “polyreactivity (PSR sort gate)” value was “low polyreactivity”.
In the case of “QVQLVESGGGLVQAGGSLRLSCAASGSTFSLYAMGWYRQSPGKETELVASITWGGGSTYADSVKRLFTISRDNAKNTVYLQMNSLKPEDPAVYYCARKYRYRVLYDFAYDHWGQGTEVTVSS”, the “polyreactivity (PSR sort gate)” value is reported as “low polyreactivity”.
For the sequence “QVQLVESGGGLVQAGGSLRLSCAASGSTFSLYGMGWYRQAPGKERELVAAIRRSGGRTYYADSVKGRFTISRDNAKNTVYLQMNSLKPEDTAVYYCAKSVPRYYSKSGLAYEFDYWGQGTQVTVSS”, the “polyreactivity (PSR sort gate)” value is “low polyreactivity”.
As to “QVQLVESGGGLVQAGGSLRLSCAASGSTFSLYTMGWYRQAPGKERELVAAITWTGGSTYYADSVKGRFTISRDNAKNTVYLQMNSLKPEDTAVYYCAAVSRLTGSRESQLIRSRMYYWGQGTQVTVSS”, the “polyreactivity (PSR sort gate)” value is on record as “high polyreactivity”.
As for “QVQLVESGGGLVQAGGSLRLSCAASGSTFSNNTMGWYRQAPGKETELVATIDFNGGSTYYADSVKGRFTISRDNAKNTVYLQMNSLKPEDTAGYYCAAAEYLYTLPYGYWGQGTQVTVSS”, the “polyreactivity (PSR sort gate)” value is “low polyreactivity”.
Take “QVQLVESGGGLVQAGGSLRLSCAASGSTFSNNVMGGYIQAPGKERELVAAISSRGGSTYYADSVKGRFTISRDNAKNTVYLQMNSLKPEDTAVYYCAADQWYAFILGYPMVYWGQGTQVTVSS”: the “polyreactivity (PSR sort gate)” value was “high polyreactivity”.
For the sequence “QVQLVESGGGLVQAGGSLRLSCAASGSTFSNYAMGWYRQAPGKERELVASISNGGSTNYADSVKGRFTISRDNAKNTVYLQMNSLKPEDTAVYNCNAESKAKYDYWGQGTQVTVSS”, the “polyreactivity (PSR sort gate)” value is “low polyreactivity”.
For “QVQLVESGGGLVQAGGSLRLSCAASGSTFSPYAMGWYRQAPGKEMDFVAAITSSGGSTYYADSVKGRFTISRDNAKNTVYLQMNSLKPEDTALYYFAAEGYYTSTYDLFDYYYWGQGTQVTVSS”, the “polyreactivity (PSR sort gate)” value was “low polyreactivity”.
On to “QVQLVESGGGLVQAGGSLRLSCAASGSTFSQNAMGWYRQAPGKERELVDAITSGGITYYADSVKGRFTISRDNAKNTVYLQMNSLKPEDTAVYYCNADAIVSPYRLWTVTYYYWGQGTQVTVSS”, for which the “polyreactivity (PSR sort gate)” value is recorded as “low polyreactivity”.
Take “QVQLVESGGGLVQAGGSLRLSCAASGSTFSRNAMGWYRQAPGKEREFVAAISTSGDSTYYADSVKGRFTISRDNAKNTVYLQMNSLKPEDTAVYYCADDGFWIAYQEGDYWGQGTQVTVSS”: the “polyreactivity (PSR sort gate)” value is “low polyreactivity”.
In the case of “QVQLVESGGGLVQAGGSLRLSCAASGSTFSRNAMGWYRQAPGKERELVAAISRRGGSTYYADSVKGRFTISRDNAKNTVYLQMNSLKPEDTAVYYCNRDSSYKNNYDYWGQGTQVTVSS”, the “polyreactivity (PSR sort gate)” value is recorded as “high polyreactivity”.
Regarding “QVQLVESGGGLVQAGGSLRLSCAASGSTFSRYAMGWSRQAPGKERELVAAISSSGGSTYYADSVKGRFTISRDNAKNTVYLQMNSLKPEDTAVYYCAARIWRTRRYDYWGQGTQVTVSS”, the “polyreactivity (PSR sort gate)” value is “high polyreactivity”.
Turning to “QVQLVESGGGLVQAGGSLRLSCAASGSTFSRYAMGWSRQAPGKERELVAAISWSGGSTYYAVSVKGRFTISRDNAKNTVYLQMISLKPEDTAVYYCAAYTYSFRANHDYWGQGTQVTVSS”, the “polyreactivity (PSR sort gate)” value is reported as “high polyreactivity”.
In the case of “QVQLVESGGGLVQAGGSLRLSCAASGSTFSRYAMGWYRQAPGKERELVAAISGSGGSTSYADSVKGRFTISRDNAKNTVYLQMNSLKPEDTAVYYCAAYYLWYSRAFDYWGQGTQVTVSS”, the “polyreactivity (PSR sort gate)” value is “high polyreactivity”.
Then “QVQLVESGGGLVQAGGSLRLSCAASGSTFSRYAMGWYRQAPGKERELVAAISSSGGSTYYADSVKGRFTISRDTAKNTVYLQMNSLKPEDTAVYYCAVSHKYYGRRDYWGQGTQVTVSS”, with “high polyreactivity”; and “QVQLVESGGGLVQAGGSLRLSCAASGSTFSRYAMGWYRQAPGKERELVAAISWGGNTYYADSVKGRFTISRDNAKNTVYLQMNSLKPEDTAVYYCNRYSKLYNTMDYWGQGTQVTVSS”, with “high polyreactivity”.
Under “QVQLVESGGGLVQAGGSLRLSCAASGSTFSRYAMGWYRQAPGKERELVAAISYSGDSTYYADSVKGRFTISRDYAKNTVYLQMNSLKPEDTAVYYCNVYSHYRGYYWGQGTQVTVSS” stands “high polyreactivity”.
Consider “QVQLVESGGGLVQAGGSLRLSCAASGSTFSRYAMGWYRQAPGKERELVAAITASGGSTYYADSVKGRFTISRDNAKNTVYLQMNRLKPEDTAVYYCAASYQVRYDYWGQGTQVTVSS”, for which the “polyreactivity (PSR sort gate)” value was “high polyreactivity”.
Then “QVQLVESGGGLVQAGGSLRLSCAASGSTFSRYAMGWYRQAPGKERELVAAITSSGGSSYYADSVKGRFTISRDNAKNTVYLQMNSLKPEDTAVYYCAASYQVRYDYWGQGTQVTVSS”, with “high polyreactivity”; and “QVQLVESGGGLVQAGGSLRLSCAASGSTFSRYTMGWYRQAPGKERELVAAISKSGGSTYYADSVKGRFTISRDNAKNTVYLQMNSLKPEDTAVYYCAALVRAGTSLDYDYWGQGTEVTVSS”, with “high polyreactivity”; and “QVQLVESGGGLVQAGGSLRLSCAASGSTFSSNAMGWYRQAPGKERELVAAINRRGGTYYADSVKGRFTISRDNAKNTVYLQMNSLKPEDTAVYYCAAASPYHEYDYWGQGTQVTVSS”, with “low polyreactivity”.
Then “QVQLVESGGGLVQAGGSLRLSCAASGSTFSSNGMGWYRPAPGKERELVAAITSGGSTNYADSVKGRFTISRDNAKNTVYLQMNSLKPEDTAVYYCNAERTAYGGGDYWGQGTQVTVSS”, with “low polyreactivity”.
